Earlier results, collected in US20200102349A1, “PEPTIDE REAGENTS AND METHODS FOR DETECTION AND TARGETING OF DYSPLASIA, EARLY CANCER AND CANCER” (THE REGENTS OF THE UNIVERSITY OF MICHIGAN, priority 2014, published 2020).

Tested on: mouse xenograft tumor that overexpressesed EGFR
Settings: whole body fluorescence imaging

B1: Human recombinant EGF: Human recombinant EGF labeled with IRDye 800 CW (NHS ester) (protein, UniProt P01133 23-1207, looked up)
Pro-epidermal growth factor: PQHWSCPEGTLAGNGNSTCVGPAPFLIFSHGNSIFRIDTEGTNYEQLVVDAGVSVIMDFHYNEKRIYWVDLERQLLQRVFLNGSRQERVCNIEKNVSGMAINWINEEVIWSNQQEGIITVTDMKGNNSHILLSALKYPANVAVDPVERFIFWSSEVAGSLYRADLDGVGVKALLETSEKITAVSLDVLDKRLFWIQYNREGSNSLICSCDYDGGSVHISKHPTQHNLFAMSLFGDRIFYSTWKMKTIWIANKHTGKDMVRINLHSSFVPLGELKVVHPLAQPKAEDDTWEPEQKLCKLRKGNCSSTVCGQDLQSHLCMCAEGYALSRDRKYCEDVNECAFWNHGCTLGCKNTPGSYYCTCPVGFVLLPDGKRCHQLVSCPRNVSECSHDCVLTSEGPLCFCPEGSVLERDGKTCSGCSSPDNGGCSQLCVPLSPVSWECDCFPGYDLQLDEKSCAASGPQPFLLFANSQDIRHMHFDGTDYGTLLSQQMGMVYALDHDPVENKIYFAHTALKWIERANMDGSQRERLIEEGVDVPEGLAVDWIGRRFYWTDRGKSLIGRSDLNGKRSKIITKENISQPRGIAVHPMAKRLFWTDTGINPRIESSSLQGLGRLVIASSDLIWPSGITIDFLTDKLYWCDAKQSVIEMANLDGSKRRRLTQNDVGHPFAVAVFEDYVWFSDWAMPSVMRVNKRTGKDRVRLQGSMLKPSSLVVVHPLAKPGADPCLYQNGGCEHICKKRLGTAWCSCREGFMKASDGKTCLALDGHQLLAGGEVDLKNQVTPLDILSKTRVSEDNITESQHMLVAEIMVSDQDDCAPVGCSMYARCISEGEDATCQCLKGFAGDGKLCSDIDECEMGVPVCPPASSKCINTEGGYVCRCSEGYQGDGIHCLDIDECQLGEHSCGENASCTNTEGGYTCMCAGRLSEPGLICPDSTPPPHLREDDHHYSVRNSDSECPLSHDGYCLHDGVCMYIEALDKYACNCVVGYIGERCQYRDLKWWELRHAGHGQQQKVIVVAVCVVVLVMLLLLSLWGAHYYRTQKLLSKNPKNPYEESSRDVRSRRPADTEDGMSSCPQPWFVVIKEHQDLKNGGQPVAGEDGQAADGSMQPTSWRQEPQLCGMGTEQGCWIPVSSDKGSCPQVMERSFHMPSYGTQTLEGGVEKPHSLLSANPLWQQRALDPPHQMELTQ
modifications: Pro-epidermal growth factor IRDye 800CW label
  time of peak signal after injection: 2 days
